Results reported in patent US20230248800A1.

Molecular target: human V1a receptor (human) (UniProt P37288)
Test: cell-based or functional assay

human V1a receptor (human), sequence (P37288 whole entry): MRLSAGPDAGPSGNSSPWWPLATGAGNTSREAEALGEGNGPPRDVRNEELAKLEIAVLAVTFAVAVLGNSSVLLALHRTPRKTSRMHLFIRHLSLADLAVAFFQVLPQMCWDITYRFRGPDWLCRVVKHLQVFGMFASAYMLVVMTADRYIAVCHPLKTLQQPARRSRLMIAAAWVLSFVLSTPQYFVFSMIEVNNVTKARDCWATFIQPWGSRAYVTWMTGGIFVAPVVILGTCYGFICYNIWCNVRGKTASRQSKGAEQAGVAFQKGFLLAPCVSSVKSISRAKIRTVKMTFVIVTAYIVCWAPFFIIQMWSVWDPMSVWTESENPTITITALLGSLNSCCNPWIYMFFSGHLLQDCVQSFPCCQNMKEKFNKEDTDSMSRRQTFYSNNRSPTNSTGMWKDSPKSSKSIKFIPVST

Substance: Lysine vasopressin (LVP) (from UniProt P01183 20-28) (peptide)
- Estimated V1a EC50 (calcium flux): 1.65 nM
- V1a Highest agonist effect (% of AVP): 92.1 % of AVP
